Laboratory results as given in patent publication US20050238665A1.

Target: Crotalus durissus terrificus venom
Experiment: ELISA on C.d.t. venom (5 µg/ml coat)

preimmune IgY (chicken egg yolk) (antibody)
absorbance at dilution 1:5: < 0 absorbance | absorbance at dilution 1:25: 0 absorbance | absorbance at dilution 1:125: 0.003 absorbance | absorbance at dilution 1:625: 0 absorbance | absorbance at dilution 1:3125: 0.002 absorbance | absorbance, undiluted: 0.003 absorbance
